Experimental data as given in US20040053310, “Exhaustive selection of RNA aptamers against complex targets” (published 2004).

Biological target: T1, heat shock factor (HSF) (UniProt P22813 P22813:1-691)
T1 sequence: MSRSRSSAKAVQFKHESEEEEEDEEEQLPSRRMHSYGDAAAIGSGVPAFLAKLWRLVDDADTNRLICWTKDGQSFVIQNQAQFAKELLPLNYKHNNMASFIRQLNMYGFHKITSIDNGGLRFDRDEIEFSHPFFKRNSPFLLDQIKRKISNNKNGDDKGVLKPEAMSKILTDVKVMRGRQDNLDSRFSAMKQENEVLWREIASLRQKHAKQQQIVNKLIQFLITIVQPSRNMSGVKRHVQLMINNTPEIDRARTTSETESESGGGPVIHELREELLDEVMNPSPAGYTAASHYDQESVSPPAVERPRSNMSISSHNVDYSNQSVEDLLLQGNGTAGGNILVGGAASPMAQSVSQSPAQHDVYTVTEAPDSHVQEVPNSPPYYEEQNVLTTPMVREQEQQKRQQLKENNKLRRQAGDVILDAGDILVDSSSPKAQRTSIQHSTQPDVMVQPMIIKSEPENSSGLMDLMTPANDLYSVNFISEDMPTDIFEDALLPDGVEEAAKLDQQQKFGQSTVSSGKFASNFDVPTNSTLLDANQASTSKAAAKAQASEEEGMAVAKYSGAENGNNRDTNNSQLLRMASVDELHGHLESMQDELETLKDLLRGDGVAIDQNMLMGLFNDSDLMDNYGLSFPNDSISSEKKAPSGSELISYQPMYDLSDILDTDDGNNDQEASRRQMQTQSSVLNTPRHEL
Test: EMSA; estimated from EMSA data; construct not given
Conditions: tags: fusion construct from E. coli (GST, His or MBP; exact one not specified for this assay); chain copies: 3

B1: RA1-HSF (14-1) (ssRNA)
RNA: GGGAGAAUUCAACUGCCAUCUAGGCAUCGCGAUACAAAAUUAAGUUGAACGCGAGUUCUCCAUCUAGUACUACAAGCUUCUGGACUCGAU
For B1, the Kd was 20 nM.
